The text below walks through data of patent publication CN108727489A (GUANGZHOU 8TH PEOPLES HOSPITAL; UNIV TSINGHUA, dated 2018).

The target of one assay is T1, E-His 6 融合蛋白 (Zika virus, UniProt A0A024B7W1 292-693).
T1 construct: Expressed in 293T cells, purified on a Ni column and by gel filtration; Used as the ELISA coating antigen; also called E-His6 fusion protein; 寨卡病毒的E蛋白
Briefly: ELISA screen of memory B cell culture supernatants on coated E-His6 fusion protein.

Assay [1] concerns the target 寨卡病毒GZ01株的E蛋白 (on virus particles) (Zika virus GZ01 strain). Briefly: cell-based or functional assay.

T1 sequence (A0A024B7W1 292-693, tags left off): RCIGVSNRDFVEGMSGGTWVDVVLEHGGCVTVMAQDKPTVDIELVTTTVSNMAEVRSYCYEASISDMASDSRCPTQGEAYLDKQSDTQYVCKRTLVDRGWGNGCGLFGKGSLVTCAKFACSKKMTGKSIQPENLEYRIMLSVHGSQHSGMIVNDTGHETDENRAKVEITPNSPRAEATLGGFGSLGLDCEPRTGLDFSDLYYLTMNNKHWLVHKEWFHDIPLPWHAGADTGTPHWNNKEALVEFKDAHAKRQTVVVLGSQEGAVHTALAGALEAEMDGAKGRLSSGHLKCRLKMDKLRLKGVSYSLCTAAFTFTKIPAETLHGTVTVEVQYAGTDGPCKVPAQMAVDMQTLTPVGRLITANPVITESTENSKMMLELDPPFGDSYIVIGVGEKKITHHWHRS

B1: ZK2C2 (antibody, human IgG1, lambda, V domains shown)
VH: EVQLLESGGGVVQPGRSLRLSCAGSGFTFSSYGMHWVRQAPGKGLEWVAVISYDGSNKYYVDSVKGRFTISRDNSRNTLYLQMNNLKAEDTAVYYCAKGHLIDWGQGTLVTVSS
VL: QLVLTQPPSASGTPGQRVTISCSGSSSNIGRNIVNWYQQFPGTTPKLLIYGTNQRPSGVPDRFSGSKSGTSASLAISGLQSEDETNYYCAAWDDSLNGWLFGGGTKLTVLG
notes: also called 单克隆抗体ZK2C2; ZK2C2抗体
With B1, the binding result with E-His 6 融合蛋白 is recorded as “binds”. Further, the “中和百分比为50%时的抗体浓度 (IC50), plaque reduction on Vero cells” value in assay [1] stood at 3.8 µg/mL.
